Experimental data from patent US20210205445A1.

Target: Dectin-2 on murine bone marrow-derived dendritic cells (mouse) (UniProt Q9JKF4)
Assay: cell-based or functional assay

Chain of UniProt Q9JKF4 (Q9JKF4 whole entry): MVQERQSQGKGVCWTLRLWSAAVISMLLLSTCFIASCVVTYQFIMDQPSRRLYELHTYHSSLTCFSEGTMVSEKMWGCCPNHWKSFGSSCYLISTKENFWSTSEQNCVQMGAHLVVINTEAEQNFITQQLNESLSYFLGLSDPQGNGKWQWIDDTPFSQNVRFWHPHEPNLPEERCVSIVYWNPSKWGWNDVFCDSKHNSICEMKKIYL

recombinant Bl-Eng2 (Blastomyces dermatitidis Eng2 expressed in Pichia pastoris, C-terminal Myc-6xHis tag) (ligand)
Ligand induced IL-6 production by murine BMDC, against Furfurman, Man-Lam and MP98: > 100 fold
